Test results reported in patent publication US6034066A, “Cysteine protease inhibitors for use in treatment of IGE mediated allergic diseases” (Peptide Therapeutics Limited, priority 1995, dated 2000).

Biological target: T1, Der p I (Dermatophagoides pteronyssinus, UniProt P08176)
T1 construct: tissue SmithKline-Beecham (crude mite extract); host or cells: house dust mite extract, purified on immobilised anti-Der p I antibody 4C1
T1 sequence (P08176 99-320): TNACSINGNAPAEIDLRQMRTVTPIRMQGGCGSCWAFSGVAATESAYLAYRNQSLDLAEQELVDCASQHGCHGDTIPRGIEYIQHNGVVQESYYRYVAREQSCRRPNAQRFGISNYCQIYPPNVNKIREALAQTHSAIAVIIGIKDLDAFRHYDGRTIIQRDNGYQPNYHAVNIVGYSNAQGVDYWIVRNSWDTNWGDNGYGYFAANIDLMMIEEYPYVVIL
Test: Cleavage of membrane CD23 on RPMI 8866 B cells by Der p I, FACS with FITC anti-CD23 (Bu38)
Type: cell-based
Conditions: Der p I pre-incubated 30 min at 37° C. with inhibitor, then added to RPMI 8866 cells; FIG. 1(c)
From the text: We have affinity purified Der p I from dust mite extract and tested its ability to proteolytically cleave CD23 expressed on cultured RPMI 8866 B cells, using FITC labelled monoclonal anti-human CD23 (Bu38). […] The proteolytic activity of Der p I was inhibited by E64 (a cysteine protease inhibitor), but not by alpha-1-antitrypsin (a serine protease inhibitor), thereby confirming the cysteine protease nature of Der p I (FIG. 1c). […] A more detailed description of FIG. 1 is as follows:
Cells were analysed on a FACScan (Becton Dickinson, Oxford, UK) with a linear fluorescence setting of 660 volts. The fluorescence (FL1) profile versus forward scatter (FSC) was used to monitor the cells, the amplification scale was altered according to the level of fluorescence. For each sample 4000 events were collected and then analysed using the flowMATE programme (DAKO, High Wycombe, UK). Data presented are representative of 3 replicate experiments, each point in a to c represents the mean of duplicate determinations, FIG. 1(a). Dose and cysteine dependency of CD23 cleavage by Der p I (for method of purification see FIG. 1(d) below). Der p I was pre-incubated (15 min at 37° C.) with or without 5 mM cysteine and added to 2-3×10^5 RPMI 8866 cells in a total volume of […] RPMI 1640+10 mM HEPES. […]

Compound | inhibition of membrane CD23 cleavage by Der p I
alpha-1-antitrypsin: a naturally occurring human serine protease inhibitor | no such inhibitory effect
CC(C)C[C@H](NC(=O)[C@H]1O[C@@H]1C(=O)O)C(=O)NCCCCN=C(N)N (relative stereo) [Compound E64, L-trans-epoxysuccinyl-leucylamido (4-guanidino) butane, reference compound] | completely inhibits
